# US20250388673A1 (HIFIBIO, published 2025)
# Where a chain is given by its changes, count along the chain named.
# T1: human BTLA (human, UniProt Q7Z6A9 31-289)
# T1 construct: also called hBTLA; HEK293.hBTLA
# T1 sequence: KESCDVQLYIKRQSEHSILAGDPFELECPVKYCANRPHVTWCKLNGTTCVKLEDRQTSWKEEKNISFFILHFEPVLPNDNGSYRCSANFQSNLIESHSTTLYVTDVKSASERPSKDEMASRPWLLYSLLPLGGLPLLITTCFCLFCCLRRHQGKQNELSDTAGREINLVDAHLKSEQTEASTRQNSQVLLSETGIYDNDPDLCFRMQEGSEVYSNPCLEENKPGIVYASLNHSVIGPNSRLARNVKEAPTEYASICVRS
# B1: HFB6-5hz19-hG1 (antibody, human IgG1, V domains shown)
# VH: QVQLVQSGAEVKKPGSSVKVSCKASGVNIKDTYMYWVRQAPGQGLEWIGRIDPANGYARYAQKFQGRATITADESTSTAYMELSSLRSEDTAVYYCAVYDGYYESFDVWGQGTLVTVSS
# VL: DIVMTQSPDSLAVSLGERATINCKSSQSLLDSDGKTYLNWLQQKPGQSPKRLIYLVSKLDSGVPDRFSGSGSGTDFTLTISSVQAEDLAVYYCWQGTLFPRTFGQGTKLEIK
# notes: Humanized variant of HFB6-5, human IgG1 (hG1)
# B2: HFB6-5hz21-hG1 (antibody, human IgG1, V domains shown)
# VH: EVQLVESGGGLVQPGRSLRLSCTASGVNIKDTYMYWVRQAPGKGLEWVGRIDPANGYTRYTASFKGRATISADGSKSIAYLQMNSLKTEDTAVYYCAVYDGYYESFDVWGQGTLVTVSS
# VL: B1 VL
# notes: as for B1
# B3: HFB6-5hz24-hG1 (antibody, human IgG1, V domains shown)
# VH: EVQLVQSGAEVKKPGESLKISCKGSGVNIKDTYMYWVRQMPGKGLEWIGRIDPANGYTRYSPSFQGQVTISADKSISTAYLQLSSLKASDTAMYYCAVYDGYYESFDVWGQGTLVTVSS
# VL: B1 VL
# notes: as for B1
# B4: HFB6-5hz20-hG1 (antibody, human IgG1, V domains shown)
# VH: B1 VH with S16A, A58T, E74T, A79V
# VL: B1 VL
# notes: as for B1
# B5: HFB6-5hz22-hG1 (antibody, human IgG1, V domains shown)
# VH: B2 VH with R16G, R19K, T23A, P41S, V48I, T61A, G74D, S77N, I78T, M83L
# VL: B1 VL
# notes: as for B1
# B6: HFB6-4hz9-hG1 (antibody, human IgG1, V domains shown)
# VH: EVQLVESGGGLVQPGRSLRLSCTTSGFNIKDTYIHWFRQAPGKGLEWVGRNDPANGNTKYTASFKGRATISADGSKSIAYLQMNSLKTEDTAVYYCASYEGYYERFGYWGQGTLVTVSS
# VL: DVVMTQSPLSLPVTLGQPASISCRSSQSLLDRDGKTYLNWLQQRPGQSPRRLIYLVSKRDSGVPDRFSGSGSGTDFTLKISRVEAEDVGVYYCWQDTHFPYTFGQGTKLEIK
# notes: Humanized variant of HFB6-4, human IgG1 (hG1)
# B7: HFB6-4hz12-hG1 (antibody, human IgG1, V domains shown)
# VH: EVQLVQSGAEVKKPGESLKISCKTSGFNIKDTYIHWVRQMPGKGLEWIGRNDPANGNTKYSPSFQGQVTISADKSISTAYLQLSSLKASDTAMYYCASYEGYYERFGYWGQGTLVTVSS
# VL: B6 VL
# notes: as for B6
# B8: HFB6-4hz11-hG1 (antibody, human IgG1, V domains shown)
# VH: QVQLQESGPGLVKPSGTLSLTCAVSGFNIKDTYIHWVRQPPGKGLEWIGRNDPANGNTKYNPSFKSRATISADKSKNQASLKLSSVTAADTAVYYCASYEGYYERFGYWGQGTLVTVSS
# VL: B6 VL
# notes: as for B6
# B9: HFB6-4hz10-hG1 (antibody, human IgG1, V domains shown)
# VH: EVQLVESGGGLVQPGGSLKLSCATSGFNIKDTYIHWVRQASGKGLEWIGRNDPANGNTKYAASFKGRATISADDSKNTAYLQLNSLKTEDTAVYYCASYEGYYERFGYWGQGTLVTVSS
# VL: B6 VL
# notes: as for B6
# B10: HFB6-5hz17-hG1 (antibody, human IgG1, V domains shown)
# VH: QVQLQESGPGLVKPSGTLSLTCAASGVNIKDTYMYWVRQPPGKGLEWIGRIDPANGYTRYNPSFKSRATISADKSKNQASLKLSSVTAADTAVYYCAVYDGYYESFDVWGQGTLVTVSS
# VL: EIVLTQSPGTLSVSPGERATISCRSSQSLLDSDGKTYLNWLQQKPGQAPRRLIYLVSKRDTGVPDRFSGSGSGTDFTLTISRVEPEDFAVYYCWQGTLFPRTFGQGTKLEIK
# notes: as for B1
# B11: HFB6-4hz15-hG1 (antibody, human IgG1, V domains shown)
# VH: B6 VH
# VL: B10 VL with V13L, I21L, S32R, R59L, T61S, V63I, V83L, G96D, L98H, R101Y
# notes: as for B6
# B12: HFB6-5hz23-hG1 (antibody, human IgG1, V domains shown)
# VH: B10 VH
# VL: B1 VL
# notes: as for B1
# B13: HFB6-4hz17-hG1 (antibody, human IgG1, V domains shown)
# VH: B8 VH
# VL: B10 VL with V13L, I21L, S32R, R59L, T61S, V63I, V83L, G96D, L98H, R101Y
# notes: as for B6
# B14: HFB6-4hz18-hG1 (antibody, human IgG1, V domains shown)
# VH: B7 VH
# VL: B10 VL with V13L, I21L, S32R, R59L, T61S, V63I, V83L, G96D, L98H, R101Y
# notes: as for B6
# B15: HFB6-5hz18-hG1 (antibody, human IgG1, V domains shown)
# VH: B3 VH
# VL: B10 VL
# notes: as for B1
# B16: HFB6-4hz16-hG1 (antibody, human IgG1, V domains shown)
# VH: B9 VH
# VL: B10 VL with V13L, I21L, S32R, R59L, T61S, V63I, V83L, G96D, L98H, R101Y
# notes: as for B6
# B17: HFB6-5-hG1 (human-mouse chimeric monoclonal antibody) (antibody, human IgG1, kappa, V domains shown)
# VH: EVQLQQSGAELVKPGASVKLSCTASGVNIKDTYMYWVKQRPEQGLEWIGRIDPANGYTRYDPKFQGKATITADTSSNTAHLQLSSLTSEDAAVYYCAVYDGYYESFDVWGAGTTVTVSS
# VL: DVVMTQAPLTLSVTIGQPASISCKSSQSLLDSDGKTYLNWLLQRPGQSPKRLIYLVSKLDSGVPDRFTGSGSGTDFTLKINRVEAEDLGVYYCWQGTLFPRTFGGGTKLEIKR
# notes: also called HFB-5; HFB6-5 parental antibody
# B18: HFB6-4hz2-hG1 (antibody, human IgG1, V domains shown)
# VH: QVQLVQSGAEVKKPGASVKVSCKTSGFNIKDTYIHWVRQAPGQGLEWIGRNDPANGNTKYAQKFQGRVTMTADTSTSTVYMELSSLRSEDTAVYYCASYEGYYERFGYWGQGTLVTVSS
# VL: DIQMTQSPSSLSASVGDRVTITCRSSQSLLDRDGKSYLNWLQQKPGKAPKRLIYLVSKLDSGVPSRFSGSGSGTDFTLTISSLQPEDFATYYCWQDTHFPYTFGQGTKLEIK
# notes: as for B6
# B19: HFB6-4hz7-hG1 (antibody, human IgG1, V domains shown)
# VH: B18 VH with A16S, V68A, M70I, T74E, V79A
# VL: B6 VL
# notes: as for B6
# B20: HFB6-4hz5-hG1 (antibody, human IgG1, V domains shown)
# VH: B8 VH
# VL: B18 VL
# notes: as for B6
# B21: HFB6-4hz3-hG1 (antibody, human IgG1, V domains shown)
# VH: B6 VH
# VL: B18 VL
# notes: as for B6
# B22: HFB6-4hz6-hG1 (antibody, human IgG1, V domains shown)
# VH: B7 VH
# VL: B18 VL
# notes: as for B6
# B23: HFB6-4hz13-hG1 (antibody, human IgG1, V domains shown)
# VH: B18 VH with A16S, V68A, M70I, T74E, V79A
# VL: B10 VL with V13L, I21L, S32R, R59L, T61S, V63I, V83L, G96D, L98H, R101Y
# notes: as for B6
# B24: HFB6-4hz14-hG1 (antibody, human IgG1, V domains shown)
# VH: B18 VH
# VL: B10 VL with V13L, I21L, S32R, R59L, T61S, V63I, V83L, G96D, L98H, R101Y
# notes: as for B6
# B25: HFB6-4hz8-hG1 (antibody, human IgG1, V domains shown)
# VH: B18 VH
# VL: B6 VL
# notes: as for B6
# B26: HFB6-4hz4-hG1 (antibody, human IgG1, V domains shown)
# VH: B9 VH
# VL: B18 VL
# notes: as for B6
# Biological target: T1, human BTLA
# Assay: flow cytometry, HEK293 cells overexpressing human BTLA
# Protocol: HEK293 cells overexpressing human BTLA and Expi293 cells overexpressing cynomolus BTLA were incubated with different concentrations of humanized anti-BTLA antibodies. Anti-BTLA antibody binding to target cells were quantified with an AF647-conjugated anti-human IgG Fc secondary antibody by flow cytometry.
row,binding result,Binder
1,binds,B1
2,binds,B2
3,binds,B3
4,binds,B4
5,binds,B5
6,binds,B6
7,binds,B7
8,binds,B8
9,binds,B9
10,binds,B10
11,binds,B11
12,binds,B12
13,binds,B13
14,binds,B14
15,binds,B15
16,binds,B16
17,binds,B17
18,binds,B18
19,binds,B19
20,binds,B20
21,binds,B21
22,binds,B22
23,binds,B23
24,binds,B24
25,binds,B25
26,binds,B26
